Target: Neuropilin 1 (NRP1), R&D 3870-N1-025 (UniProt O14786)
Assay: BLI (Octet), biotinylated NRP1 on SA biosensor, 1:1 global fit

Neuropilin 1 (NRP1), R&D 3870-N1-025, sequence (O14786 other isoform, or with tags, fused parts or gaps limits assumed): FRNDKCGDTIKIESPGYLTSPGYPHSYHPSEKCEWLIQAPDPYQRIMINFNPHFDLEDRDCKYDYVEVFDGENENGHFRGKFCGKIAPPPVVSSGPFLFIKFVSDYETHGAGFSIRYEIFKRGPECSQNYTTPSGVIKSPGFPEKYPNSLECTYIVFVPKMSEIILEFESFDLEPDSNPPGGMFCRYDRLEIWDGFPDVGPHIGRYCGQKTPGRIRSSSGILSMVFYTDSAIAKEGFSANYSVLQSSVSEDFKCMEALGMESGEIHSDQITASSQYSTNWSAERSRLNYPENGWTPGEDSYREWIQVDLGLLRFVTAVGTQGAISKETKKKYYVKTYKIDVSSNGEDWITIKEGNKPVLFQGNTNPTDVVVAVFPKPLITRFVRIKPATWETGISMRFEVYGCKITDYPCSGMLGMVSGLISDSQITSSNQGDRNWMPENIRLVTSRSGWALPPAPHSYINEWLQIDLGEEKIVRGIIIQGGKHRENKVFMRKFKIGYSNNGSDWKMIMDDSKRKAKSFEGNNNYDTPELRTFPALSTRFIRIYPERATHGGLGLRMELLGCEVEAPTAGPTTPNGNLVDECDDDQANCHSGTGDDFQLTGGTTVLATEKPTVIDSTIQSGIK

Kd: 5.53 nM
koff: 0.0015 s⁻¹
kon: 272000 M⁻¹ s⁻¹
Substance: Vascular endothelial growth factor (VEGF) (ligand)

From patent US20260139017A1, “COMPOSITIONS AND METHODS USING REELIN IN ALZHEIMER'S DISEASE” (The General Hospital Corporation, priority 2022, published 2026)
